From the nanobody polyreactivity screen of Harvey et al. (2022)

Test: yeast display, Sf9 membrane polyspecificity reagent, FACS + sequencing; frameworks hold sequencing errors
Summary of the method: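 In a synthetic yeast display library (Saccharomyces cerevisiae BJ5465), nanobody expression was induced with galactose for 36–48 hours. FACS gates were set low and high (top ~1%) using anti-HA fluorescence for expression and streptavidin fluorescence for binding of the Sf9 membrane reagent. Each polyreactivity label is drawn from the gate of origin.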

Sequence	polyreactivity (PSR sort gate)
QVQLVESGGGLVQAGGSLRLSCAASGRTFYYNTMGWYRQAPGKERELVATISRIGGSTYYADSVKGRFTISRDNAKNTVYLQMNSLKPEDTAVYYCAKGRSLNGRPPVVYWQLFYYWGQGTQVTVSS	high polyreactivity
QVQLVESGGGLVQAGGSLRLSCAASGRTFYYNTMGWYRQAPGKERELVATITSSGGRTYYADSVKGRFTISRDYAKNTVYLQMNSLKPEDTAVYYCNAALSRAFKHSTGYDYWGQGTQVTVSS	low polyreactivity
QVQLVESGGGLVQAGGSLRLSCAASGRTFYYYALGWDRQAPAKERELVAAIRWRGGRTYADSVKGRFTISRDNAKNTVYVQMNSLKPEDTAVYYCAVESFYRHASLYDYWGQGTQVTVSS	high polyreactivity
QVQLVESGGGLVQAGGSLRLSCAASGRTFYYYAMGWYRQAPGKERELVAAISWSGGRTYYADSVKGRFTISRDNAKNTFYLQMNSMNPEDTAVYYCAADKYYSEFDYWGQGTQVTVSS	low polyreactivity
QVQLVESGGGLVQAGGSLRLSCAASGRTFYYYAMGWYRQAPGKERELVAGITATGSSTYYADSVKGRFTISRDNAKNTVYLQMNSLKPEDTAVYYCAADRYTTYSGQWSYPYDYWGQGTQVTVSS	low polyreactivity
QVQLVESGGGLVQAGGSLRLSCAASGRTFYYYAMGWYRQAPGKERELVASITFSGGRTYYADSVKGRFTISRDNAKNTVYLQMNSLKPEDTAVYYFARPYYGRYYPNYGVTGVDYWGQGTQVTVSS	high polyreactivity
QVQLVESGGGLVQAGGSLRLSCAASGRTFYYYAMGWYRQAPGKERELVAVIRSSGDSTYYADSVKGRFTISRDNAKNTVYLQMNSLKPEDTAVYYCNADDWAYGMDYWGQGTQVTVSS	low polyreactivity
QVQLVESGGGLVQAGGSLRLSCAASGRTFYYYTMGWSRQAPGKERELVAAITSVGSTSYADSVKGRFTISRANAKNTVYLQMNSPKPEATAVYYCAADYQYVWFYYWGQGTQVTVSS	high polyreactivity
QVQLVESGGGLVQAGGSLRLSCAASGRTFYYYVMGWYRQAPGKERELVAAITKSTGSTYYADSVKGRFTISRDNAKNTVYLQMNSLKPEDTAVYYCAAAYWITTPYDYWGQGTQVTVSS	low polyreactivity
QVQLVESGGGLVQAGGSLRLSCAASGRTGSYAMGWYRQAPGQERELVAAISRRGANTYYADSVKGRFTISRDNAKNTVYLQMNSLKPEVTAVYYCAVPHLYSRVEYDYWGQGSQVTVSS	high polyreactivity
QVQLVESGGGLVQAGGSLRLSCAASGRTIDLNAMGWYRQAPGKERELVAAITSSGSTNYADSVKGRFTISRDNAKNTVYLQMNSLKPDDTAVYYCNKDPIYSAEYWVGSVGFDYWGQGTQVTVSS	low polyreactivity
QVQLVESGGGLVQAGGSLRLSCAASGRTIDSNAMGWYRQAPGKERELVAAISSDGGSTYYADSVKGRFTISRDNAKNTVYLQMNSLKPEDTAVYYCNAYYGRFPYYADDYWGQGTQVTVSS	low polyreactivity
QVQLVESGGGLVQAGGSLRLSCAASGRTIDYNGRGSYRQAPGKERELVAVISSSGGSPFYADSVKGRFTISRDNAKNTVYLQMNSLKPEDTAVYYCAADFIVAYTLHGSYDYWGQGTQVTVSS	low polyreactivity
QVQLVESGGGLVQAGGSLRLSCAASGRTIFRYAMGWYTQAPGKERDLVAAITWSGGTTYYADSVKGRFTISRDNAKNTVYLQMNSLKPEDTAVYYCNARGLWYRRVVTYGYWGQGTQVTVSS	high polyreactivity
QVQLVESGGGLVQAGGSLRLSCAASGRTIGLYDMGWYRQAHGKERELVAGITRRGGRTYYADSVKGRFTISRDNAKNSVYLQMNSLKPEDTAVYYCAAGTIYLRHAQSPFDYWGQGTQGTVSS	high polyreactivity
QVQLVESGGGLVQAGGSLRLSCAASGRTIIFNAMGWYRPAPGKERELVAAISSGGGTNYADSVKGRFTISRDNAKNTVYLQMNSLKPEDTAVYYCAADPRDHYSYVYDGYKYDYWGQGTQVTVSS	low polyreactivity
QVQLVESGGGLVQAGGSLRLSCAASGRTIITYAMGWYRQAPGKERELVAAINSTDGTSYADSVKGRFTISRDNAKNTVYLQMNSLKPEDTAVYYCARGTEVKSGISYRFYYWGQGTQVTVSS	low polyreactivity
QVQLVESGGGLVQAGGSLRLSCAASGRTIIYYGMGWYRQAPGKERELVAAISLRGSSTRYADSVKGRFTISRDNAKNTVYLQMNSLKPEDTAVYYCAARPRLSRYDYWGQGTQVTVSS	high polyreactivity
QVQLVESGGGLVQAGGSLRLSCAASGRTIKYYAMGWYRQAPGKESELVAAISSSGGRTNYADSVKGRFTISRDNANNTVYLQMNSLKPEDTAVYYCAARFYKTYPRMNYWGQGTQVTVSS	high polyreactivity
QVQLVESGGGLVQAGGSLRLSCAASGRTILVYAMGWYRPAPGKERELVAAISSDGSTNYADSVKGRFTISRDNAMNTVYLQMNSLNPEDTAVYYCARDYYAVSYLYDYWGQGTQVTVSS	low polyreactivity
QVQLVESGGGLVQAGGSLRLSCAASGRTIPSNAMGWYRQAPGKERELVAAITRSGGSTKYADSVKGRFTISRDNAKNTVYLQMNSLKPEDTAVYYCAGRYHSGSQVWYNYWGQGSQVTVSS	high polyreactivity
QVQLVESGGGLVQAGGSLRLSCAASGRTIRAYTMGWSRQAPGKERELVAAISTPGGSTYYADSVKGRFTISRDNAKNTVYLQMNSLKPEDTAVYYCAADYGGPITGYEYWGQGTQVTVSS	low polyreactivity

Sequence	polyreactivity (PSR sort gate)
QVQLVESGGGLVQAGGSLRLSCAASGRTIRGNAMGWYRQAPGKERELVAAITRSGASTTYADSVKGRFTISRDNAKNTVYLQMNSLKPEDTAVYYCAARSGAVKYSSYYYWGQGTQVTVSS	high polyreactivity
QVQLVESGGGLVQAGGSLRLSCAASGRTIRHNAMGWYRQAPGKERELVAAISRSGGSTYYADSVKGRFTISRDNAKNTVYLQMNSLKREDTAVYYCAAGYHGYDWGQGTQVTVSS	high polyreactivity
QVQLVESGGGLVQAGGSLRLSCAASGRTIRRNAMGWYRQAPGKERELVAGISGSGTITYADSVKGRFTISRDNAKNTVYLQMNSLKPEDTAVYYCAARRKSFYTFYYWGQGTQVTVSS	high polyreactivity
QVQLVESGGGLVQAGGSLRLSCAASGRTIRWNAMGWYRPAPGKERELVAAITSRGGSTYYADSVKGRFTISRDNAKNTVYLQMNSLKPEDTAVYYCAARRRSAQSGSYNHWGQGTQVTVSS	high polyreactivity
QVQLVESGGGLVQAGGSLRLSCAASGRTIRWNDMGWYRQAPGKERELVAAITSRGGSTYYADSVKGRFTISRDNAMNTVYFQMNSLKPEDTAVYYCAKQPKPPPVTGYDYWGQGSQVTVSS	high polyreactivity
QVQLVESGGGLVQAGGSLRLSCAASGRTIRWYAMGWYRPARGKERELVAVISRGGGSTTYADSVKGRFTISRDNAKNTVYLQMNSLKPEDTAVYYCAAYWGRTGYYGYDYYYWGQGTQVTVSS	high polyreactivity
QVQLVESGGGLVQAGGSLRLSCAASGRTIRYNAMGWYRQAPGKERELVAAITGSGGSTYYADSVKGRFTISRDNAKNTVYLQMNSLKPEDTAVYYCNAVGIWFPIRLIVPYDYWGQGTQVTVSS	low polyreactivity
QVQLVESGGGLVQAGGSLRLSCAASGRTIRYYTMGWYRQAPGKERELVAAISRSGGNTYYADSVKGRFTISRDNAKITVYLQMNSLKPEETAVYYCNKEYRHYVGRHDYWGQGTQVTVSS	high polyreactivity
QVQLVESGGGLVQAGGSLRLSCAASGRTIRYYTMGWYRQAPGKETELVATITGTGSTNYADSVKGRFTISRDNAKNTVYFQMNSLKPEDTEVYYCNARWDFVGTWRIYNYWGQGTQVTVSS	high polyreactivity
QVQLVESGGGLVQAGGSLRLSCAASGRTISKNAMGWYRQAPGKERELVAAISGSGGSTYYADSVKGRFTISRDNAKNTVYLQMNSLKPEDTAVYYCADRYTVSRSGYWGQGTQVTVSS	high polyreactivity
QVQLVESGGGLVQAGGSLRLSCAASGRTISRNAMGWYRQAPGTERELVASISRSGGSTYYADSVKGRFTISRDNAKNTVYLQMNSLKPEETAVYYCAASYWHRRYDYWGQGTQVTVSS	high polyreactivity
QVQLVESGGGLVQAGGSLRLSCAASGRTISSYAMGWSRQAPGKERELVAAISRSGGNTYYPDSVKGRFTISRDHAKNTVYLQMNSLKPEDTAVYYCNARGRTGFQADKFGYWGQGTQVTVSS	high polyreactivity
QVQLVESGGGLVQAGGSLRLSCAASGRTIWRYGMGWYRQAPGKERELVAAITDSGDSTYYADSVKGRFTISRDNAKNTVYLQMNSLKPEDTAVYYCAASDVVFALNGYYPGEDDYWGQGTQVTVSS	low polyreactivity
QVQLVESGGGLVQAGGSLRLSCAASGRTIWYYAMGWYRQAPGKERELVAAITYRGGSTYYADSVKGRFTISRDNVKNTVYLQMNSLKPEDTAVYFCAKENYYGGGFDYWGQGTQVTVSS	high polyreactivity
QVQLVESGGGLVQAGGSLRLSCAASGRTIYGYAMGWYRQAPGKERELVARIRSGGSTNYADSVKGRFTISRDNAKNTVYLQMNSLKPEDTAVYYCAARPGAAGYKYYYWGQGTQVTVSS	high polyreactivity
QVQLVESGGGLVQAGGSLRLSCAASGRTIYVYAMGWYRQAPGKERELVADINWSGGSTYYADSVKGRFTISRDNAKNTVYLQMNSLKPEDTAVYYCAADDWVRRRSHSGPEGYVYWGQGTQVTVSS	low polyreactivity
QVQLVESGGGLVQAGGSLRLSCAASGRTLAKNAMGWYRQAPGKERELVAAISRRGGSTYYADSVKGRFTISRDNAKNTVYLQMNSLKPEDTAVYYCARASRQGYYQLSYDEFDYWGQGTQVTVSS	high polyreactivity
QVQLVESGGGLVQAGGSLRLSCAASGRTLAPYAMGWYRQAPGKERELVAISTSGGSTYYADSVKGRFTISRDNGKNTVYLQMNSRKPEDNAVYYCAADGNSTGVYWWFYGFDYWGQGTQVTVSS	low polyreactivity
QVQLVESGGGLVQAGGSLRLSCAASGRTLDSNAMGWYRQAPGKERDLVATISKRGGNTYYADSVKGRFTISRDNAKNTVYLQMNSLKPEDTAVYYCAKDVPPEYPTSSYDYWGQGTQVTVSS	low polyreactivity
QVQLVESGGGLVQAGGSLRLSCAASGRTLDSNAMGWYRQAPGKERELVAAISSAGSTNYADSVKGRFTISRDNAKNTVYLQMNSLKPEDTAVYYCAADLIGSHDYWGQGTQVTVSS	low polyreactivity
QVQLVESGGGLVQAGGSLRLSCAASGRTLELYVMGWYRQAPGKERELVAAIRWGTGSTYYADSVKGRFTISRDNAKNTVYLQMNSLKPEDTAVYYCAAVLRQYYRAYDYWGQGTQVTVSS	high polyreactivity
